Data on 1 substance can be found in patent publication US20030199671A1, “Binding molecules for Fc-region polypeptides” (priority 2001, published 2003).

In experiment [1] the target is human IgG1 (human) [IgG part: P01857]. Nature of the experiment: batch binding, immobilised ligand.
In the next experiment the target is human IgG3 (human) (UniProt P01860). Nature of the experiment: batch binding, immobilised ligand.
Experiment [2] addresses human IgG2 (human) [IgG part: P01859]. Nature of the experiment: batch binding, immobilised ligand.
Experiment [3] deals with human IgG4 (human) [IgG part: P01861]. Nature of the experiment: batch binding, immobilised ligand.
Chain of human IgG4 (human) [IgG part: P01861] (P01861 other isoform, or with tags, fused parts or gaps): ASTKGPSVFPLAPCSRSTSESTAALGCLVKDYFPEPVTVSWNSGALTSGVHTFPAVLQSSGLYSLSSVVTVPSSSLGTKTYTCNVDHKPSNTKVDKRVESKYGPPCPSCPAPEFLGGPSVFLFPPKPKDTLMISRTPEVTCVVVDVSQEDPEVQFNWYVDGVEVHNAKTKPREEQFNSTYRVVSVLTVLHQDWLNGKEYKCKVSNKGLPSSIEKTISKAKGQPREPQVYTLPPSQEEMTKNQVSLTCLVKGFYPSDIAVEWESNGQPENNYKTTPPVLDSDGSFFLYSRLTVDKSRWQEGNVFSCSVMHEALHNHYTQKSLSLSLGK
Experiment [4] has as its target human IgG (unfractionated, polyclonal). Nature of the experiment: filterplate; ligand density not determined.
Experiment [5] addresses human IgG1 (human) [IgG part: P01857]. Nature of the experiment: mini-column chromatography, immobilised ligand.
In experiment [6] the target is human IgG2 (human) [IgG part: P01859]. Nature of the experiment: mini-column chromatography, immobilised ligand.
Chain of human IgG2 (human) [IgG part: P01859] (P01859 other isoform, or with tags, fused parts or gaps): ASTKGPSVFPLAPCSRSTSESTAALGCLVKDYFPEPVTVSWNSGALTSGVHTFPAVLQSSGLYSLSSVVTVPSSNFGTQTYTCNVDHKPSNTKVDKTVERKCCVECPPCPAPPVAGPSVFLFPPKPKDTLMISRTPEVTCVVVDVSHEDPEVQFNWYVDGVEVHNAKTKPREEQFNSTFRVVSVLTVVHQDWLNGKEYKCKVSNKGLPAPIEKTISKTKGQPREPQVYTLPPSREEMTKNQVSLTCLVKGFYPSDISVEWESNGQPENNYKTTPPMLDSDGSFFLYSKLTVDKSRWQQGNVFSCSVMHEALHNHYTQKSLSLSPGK
Experiment [7] deals with human IgG4 (human) [IgG part: P01861]. Nature of the experiment: mini-column chromatography, immobilised ligand.
Experiment [8] deals with human IgG (unfractionated, polyclonal). Nature of the experiment: mini-column; ligand density not determined.

Chain of human IgG1 (human) [IgG part: P01857] (P01857 other isoform, or with tags, fused parts or gaps): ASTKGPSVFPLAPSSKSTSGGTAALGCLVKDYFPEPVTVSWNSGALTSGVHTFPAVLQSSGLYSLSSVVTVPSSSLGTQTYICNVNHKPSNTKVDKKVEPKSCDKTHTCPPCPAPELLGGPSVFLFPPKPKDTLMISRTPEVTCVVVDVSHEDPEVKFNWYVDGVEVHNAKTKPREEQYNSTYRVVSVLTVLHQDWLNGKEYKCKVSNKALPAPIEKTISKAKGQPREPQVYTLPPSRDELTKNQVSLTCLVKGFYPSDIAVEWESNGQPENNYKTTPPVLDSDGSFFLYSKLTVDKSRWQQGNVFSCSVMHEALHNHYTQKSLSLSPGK
Chain of human IgG3 (human) (P01860 other isoform, or with tags, fused parts or gaps): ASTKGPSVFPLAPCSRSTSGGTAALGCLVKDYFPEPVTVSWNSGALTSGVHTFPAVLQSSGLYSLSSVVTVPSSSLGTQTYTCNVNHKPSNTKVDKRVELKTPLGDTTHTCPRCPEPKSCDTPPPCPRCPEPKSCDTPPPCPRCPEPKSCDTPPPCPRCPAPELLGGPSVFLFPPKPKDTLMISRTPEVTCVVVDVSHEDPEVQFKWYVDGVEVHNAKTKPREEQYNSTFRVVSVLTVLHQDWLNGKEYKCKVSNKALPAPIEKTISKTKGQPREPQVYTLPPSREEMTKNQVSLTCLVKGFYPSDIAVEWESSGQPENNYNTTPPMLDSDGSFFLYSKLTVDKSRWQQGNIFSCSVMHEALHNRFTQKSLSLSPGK

In the case of Protein A (from UniProt P38507 37-327), the Bound (% of Total Load) in experiment [1] came out at 96%; with human IgG3 (human), 0%; in [2], 85%; in experiment [3] it was 89%. For the same substance, the bdg % (of Total Load) was 93% in experiment [1], 5% with human IgG3 (human), 93% in experiment [2] and 92% in [3]. Besides, the Static Capacity (mg IgG/mL resin) in experiment [4] was 11.1. In addition, the binding efficiency in [5], in experiment [6] and in experiment [7] was over 90% throughout. Also, the 10% Breakthrough Capacity (mg IgG/mL resin) in experiment [8] stood at 12.9. For the same substance, the Total Dynamic Capacity (mg IgG/mL resin) in [8] is 16.3.
